What was measured:
[1] = tested on: Rat 1% Silver Nitrate-Induced Pain Model; experiment: Intra-articular administration in rat 1% silver nitrate-induced pain model, gait pain score (Example 24); type: in vivo; details: for average pain score: scale 0-3, 0.1 mL/kg into left hindlimb knee joint
Experimental: Rats (Crj: SD system (SPF), male, 6 weeks of age) were anesthetized, and a 1% silver nitrate solution was administered into the left hindlimb knee joint cavity at a dose of 50 µL/joint.
The gait state of the rats on the day after the model was created was evaluated by scoring. The rats were divided into groups based on the obtained scores, and under inhalation anesthesia with isoflurane, each test substance was administered at 0.1 mL/kg into the rat left hindlimb knee joint (n = 8).
The gait score was given once a day for 5 days from the day on which test substance was administrated. Note that, as the score on the first day, the score before administration (grouping) was used. Under the blind, the gait state of each group was visually observed using the following pain score table based on the gait state.
The results are shown by the average pain score on Table 16. • 0: Normal • 1: mild claudication with lifting the foot • 2: severe claudication with completely closing the toe • 3: walking on three legs

[2] = Release test of free diclofenac, felbinac, ketoprofen or naproxen in sodium phosphate buffer (Example 23); type: physicochemical
Experimental: (§1) (set temperature of air conditioner). After confirming that no gel was formed, this solution was dispensed. Immediately after the dissolution, the amount of free diclofenac present in each solution was measured by LC-MS/MS as an initial state (day 0 of storage). Also, the other dispensed solutions were incubated at 37° C. for 1, 3, and 7 days, and then the amount of free diclofenac was measured. […] The MS conditions are as follows. • Ionization mode: ESI-negative • Ion source temperature: 300 degrees • Capillary voltage: -4000 V

[3] = rabbit, in vivo
Experimental: For each test substance, 4 rabbits were used, the whole body was fixed with a towel under no anesthesia, the area around the left knee j oint was wiped with alcohol, and then 0.1 mL/kg of each of the above test substances was administered into the j oint cavity from the outside of the rabbit knee using a Terumo 1 mL syringe equipped with a 26 G injection needle (manufactured by Terumo).
Rabbits were exsanguinated and killed under combined anesthesia by intramuscular administration of ketamine hydrochloride and xylazine. The joint capsule was incised just below the patella to expose the knee joint cavity, and the inside of the joint cavity was washed with 2 mL of physiological saline using a catheter with a Surflo indwelling needle 20 G, and the synovial fluid mixed with physiological saline was collected. The amount of DF in the recovered synovial fluid was measured by the following procedure.
The synovial tissue was separated and collected from the knee joint after collecting the synovial fluid in (2) above. The collected synovial tissue was washed with physiological saline to remove the attached synovial fluid. After removing the patella, the synovial tissue was placed in a tube, and the tissue was cut into small pieces with scissors. […] The same extraction operation as in (2) above was performed, and the amount of free diclofenac was measured using LC-MS/MS.

[4] = Release test of free diclofenac from conjugates in 20 mM sodium phosphate buffer, 37°C (Example 11); type: physicochemical; details: free diclofenac; for Release Rate in Release Test at pH 5.3: pH 5.3, 37°C; for Release Rate in Release Test at pH 7.0: pH 7.0, 37°C
Experimental: as §1

[5] = Day 1 (score before administration, grouping)
[6] = pH 5.3, day 1, free drug (diclofenac, felbinac, ketoprofen or naproxen)
[7] = pH 5.3, day 3, free drug (diclofenac, felbinac, ketoprofen or naproxen)
[8] = pH 5.3, day 7, free drug (diclofenac, felbinac, ketoprofen or naproxen)
[9] = pH 7.0, day 1, free drug (diclofenac, felbinac, ketoprofen or naproxen)
[10] = pH 7.0, day 3, free drug (diclofenac, felbinac, ketoprofen or naproxen)
[11] = pH 7.0, day 7, free drug (diclofenac, felbinac, ketoprofen or naproxen)

Row | Compound | average pain score [1, 5] | average pain score ([1]; Day 2) | average pain score ([1]; Day 3) | average pain score ([1]; Day 4) | average pain score ([1]; Day 5) | Release Rate in Release Test at pH 5.3 [2, 6] [%] | Release Rate in Release Test at pH 5.3 [2, 7] [%] | Release Rate in Release Test at pH 5.3 [2, 8] [%] | Release Rate in Release Test at pH 7.0 [2, 9] [%] | Release Rate in Release Test at pH 7.0 [2, 10] [%] | Release Rate in Release Test at pH 7.0 [2, 11] [%] | DF retained in the synovial tissue continuously until ... after administration [3] [days] | degree of pain relief (recovery from pain) ([1]; compared with diclofenac, alginic acid and diclofenac + alginic acid administration groups) | Release Rate in Release Test at pH 5.3 ([4]; Day 1, 0.1% w/w conjugate) [%] | Release Rate in Release Test at pH 5.3 ([4]; Day 3, 0.1% w/w conjugate) [%] | Release Rate in Release Test at pH 5.3 ([4]; Day 7, 0.1% w/w conjugate) [%] | Release Rate in Release Test at pH 7.0 ([4]; Day 1, 0.1% w/w conjugate) [%] | Release Rate in Release Test at pH 7.0 ([4]; Day 3, 0.1% w/w conjugate) [%] | Release Rate in Release Test at pH 7.0 ([4]; Day 7, 0.1% w/w conjugate) [%]
1 | O=C([O-])Cc1ccccc1Nc1c(Cl)cccc1Cl.[Na+] [DF, Diclofenac Na, reference compound] | 2.5 | 1.9 | 1.9 | 1.0 | 0.8 | – | – | – | – | – | – | – | – | – | – | – | – | – | –
2 | Diclofenac-(2-Amino-1-(4-Hydroxypiperidin-1-Yl)Ethan-1-One)-Alginic Acid Derivative [Compound 63a] | – | – | – | – | – | 0.0 | 0.2 | 0.2 | 0.3 | 0.8 | 2.2 | ≥ 84 | – | – | – | – | – | – | –
3 | Diclofenac-(2-Amino-N-(2-Hydroxyethyl)Acetamide)-Alginic Acid Derivative [Compound 53b] | 2.5 | 1.0 | 0.9 | 0.5 | 0.4 | 0.6 | 0.8 | 1.0 | 0.9 | 2.3 | 6.4 | ≥ 84 | faster | – | – | – | – | – | –
4 | Diclofenac-(Serine Ethyl Ester)-Alginic Acid Derivative [Compound 19] | – | – | – | – | – | – | – | – | – | – | – | – | – | 0.0 | 0.0 | 0.0 | 0.0 | 0.8 | 12.3
5 | Diclofenac-(Threonine Ethyl Ester)-Alginic Acid Derivative [Compound 24] | – | – | – | – | – | – | – | – | – | – | – | – | – | 0.0 | 0.0 | 0.0 | 0.0 | 1.4 | 5.4
6 | Diclofenac-(Tyramine)-Alginic Acid Derivative [Compound 32] | – | – | – | – | – | – | – | – | – | – | – | – | – | 0.0 | 1.5 | 7.6 | 0.0 | 5.7 | 15.2
